In the experiment the target is HCMV Pr S225M (human cytomegalovirus) (UniProt P16753). The experiment can be described thus: SEC-MALS; HCMV Pr alone on SEC, eluate into Wyatt Dawn Pro and Optilab; concentration not given.

In turn, “HCMV Pr S225M (from UniProt P16753) (enzyme)” showed a stoichiometry N of 2.

The values above are taken from article doi:10.1101/2025.10.17.683123.
